Measurements published in patent US20090074790.

Biological target: recombinant GST-Smad2 fusion protein, phosphorylated in vitro by TβR-I kinase, Q15796
Sequence (Q15796 whole entry, the tested form may be a part): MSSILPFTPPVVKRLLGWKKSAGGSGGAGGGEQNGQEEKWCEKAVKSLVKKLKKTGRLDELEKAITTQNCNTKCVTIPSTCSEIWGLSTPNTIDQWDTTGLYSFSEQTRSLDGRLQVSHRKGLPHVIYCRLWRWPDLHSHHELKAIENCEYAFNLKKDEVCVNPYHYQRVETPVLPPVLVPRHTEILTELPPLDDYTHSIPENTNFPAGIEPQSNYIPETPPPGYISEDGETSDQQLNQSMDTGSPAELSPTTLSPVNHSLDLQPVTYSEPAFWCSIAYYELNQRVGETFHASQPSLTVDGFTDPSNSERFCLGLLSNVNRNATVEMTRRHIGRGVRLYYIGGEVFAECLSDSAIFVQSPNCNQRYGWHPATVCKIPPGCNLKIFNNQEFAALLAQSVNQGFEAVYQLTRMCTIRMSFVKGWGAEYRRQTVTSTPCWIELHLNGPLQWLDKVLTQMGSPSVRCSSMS

B1: purified recombinant constitutively active TβR-I kinase (protein)
chain: CHNRTVIHHRVPNEEDPSLDRPFISEGTTLKDLIYDMTTSGSGSGLPLLVQRTIARTIVLQESIGKGRFGEVWRGKWRGEEVAVKIFSSREERSWFREAEIYQTVMLRHENILGFIAADNKDNGTWTQLWLVSDYHEHGSLFDYLNRYTVTVEGMIKLALSTASGLAHLHMEIVGTQGKPAIAHRDLKSKNILVKKNGTCCIADLGLAVRHDSATDTIDIAPNHRVGTKRYMAPEVLDDSINMKHFESFKRADIYAMGLVFWEIARRCSIGGIHEDYQLPYYDLVPSDPSVEEMRKVVCEQKLRPNIPNRWQSCEALRVMAKIMRECWYANGAARLTALRIKKTLSQLSQQEGIKM
  in vitro kinase assay, density of the pSmad2 band on Western blot: a band of approximately 58 kDa, the density of which is proportional to the amount of active enzyme
